Reference: the domain aggregation screens of Martell et al. (2025)

Assay: soluble fraction after stress (log2 fold change); higher = more stays soluble; pooled small domains, quantitative proteomics
Conditions: stress: 50 degC
Outline: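 Pooled custom libraries of small protein domains were measured in a high-throughput format, with quantitative proteomics as the read-out. Each library was stressed at 50°C. Aggregation propensity is given as the base-two logarithm of the fold change in how much of each protein stays soluble after the stress. Higher values mean a larger share of the protein remains in solution.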

| Sequence | soluble fraction (log2) |
| --- | --- |
| HMVLTSFHDNFPKTGTTYTVRSGDTISGIATKFGSTRDWIQNANEISHPKYLQVGRTLFIPH | -0.203 |
| HMVMATPHNTAKAGDIAKTVIMPGDPLRAKYIADNYLDNAVQFNVVRNIYGYTGVYRGTDISVMASGM | 0.128 |
| HMVMETLAERINTALQTKGLSVNALARRVGVSYPAMRKITKGETLNPKFLFEIAEALGVSVEWLKTGEGSP | -0.372 |
| HMVMNKQEFLKILRDTLQSQLSSRETENHVEYYRTYIEEQMREGKTEIEILDVLGDPRLIARTILET | -0.0725 |
| HMVMSTDAELILEYLAKHQGEMEITDKSSPELIMDTFNMSKGAFKRALGSLYKSKTVVIESTKVLLNT | -1.44 |
| HMVNDQSIYASEGYVHIRSGKPVSLRIYTILGALYRHEERLVGDHVIALPRGLYIVVLNHTAKKIMV | -1.01 |
| HMVNEALDEFFVGLKNLYESATGKPAIAGAHFDGEPKTDFEKLMYLGYQIIRPAQAYPSALKAYERAIARS | -0.173 |
| HMVNHEERKRLIAEATWRTISHVGIEQASVRTIAKEAGLSLGALRYYFTTQEELLRFSMQLVQERV | -0.0983 |
| HMVNIEAEVGRRLRQLRARRGLSLRALADLSGLNVNTLSLIENSKTSPSVSTLQQLARSLQVPITTFFESD | -0.447 |
| HMVNKQERTYTILRDRIHSGSFAPLERLNIDALARELGVSPIPVREALRRLEAEGWVRFTPNVGAVVSP | -0.165 |
| HMVNLLVTPLEELEINFRTLRALRKYNIYQLEDLLRFIKYNGFDALRIVPGMGIKSTEQLYEKLKDKNI | -0.236 |
| HMVNTVEVQGNTIYSAEEIRSASGIQKGDNLFTLNKEAAAGSIKASLPYVETVSIIRFLPDKIVIEVKE | -0.473 |
| HMVNVLKNSTVIDLVKNNLSDALIISLIRRAKVDFSLMTDDVIELSGKGVSPAVIMEMRQAMIRQASEIQN | -0.145 |
| HMVNVTEAIDLENGTGKLSGTFNHEPKSAEEIIFLLKIDTNKWKLSQYWNKQMGDHWRVSALISQI | -1.91 |
| HMVPAMEVALEDARRAIEQVVSGERTSVQLSSQEAMIRKLQHQMAKDANLFSRSSGVEPQRRVTIYTN | 0.0136 |
| HMVPHQPRVWTNTAGKTITAAFVRFNAAGRKVSLKLEKGRQVELPLASLSGNDVDWIKEHVPEAMSNQE | -0.142 |
| HMVPISGADFEKLSDYILQKAGAGSIQVKELLAGLKGMHEKNLWKAIDYLLAEEKIRIDKGGNISVK | -0.00539 |
| HMVPQAVQDIKAYLASGALPYIGPATAKKIVAMFGSDALDVIAEHPEQLTAIRGLNEEKANAIHQEFRRQF | -0.0649 |
| HMVPSSHNIAQKVKQIKINDLWLDVRERYIYLKNLYLSHPLEKDHPSFIVYVEAVNQIYNQYF | 0.02 |
| HMVQDDLRELEGISTELLAKLADAGITNRDDLADLAIDELVAITGQSEDDAKALIMKAREHWFAGDA | -0.0273 |
| HMVQIIQLQGTDKRLYELVAPLVMNPEILKQNYNYPFRTSEDFVWFVAVDKKKVIGFIPVEEKKKEYVI | -0.0678 |
| HMVRKGEINFDQLSVRARNALRNMNILFEKEILKLTEYDLKSIPNLGVKTTNELLSYIKRLQTNQKEE | -0.191 |
| HMVRRSERLHALTESLRRSGNRGRTAEQLATEFEVSVRTIKRDLVALEASGLPLWSRPGPGGGYGLLS | -1.02 |
| HMVRTIKILGIKHNINLYYKNVKVPTMNVKNQTLEIILPNKYKKFQEEQILKVLTQKLYDKIAETEIEKIK | -0.465 |
| HMVSAEQNTLEFIKENVKEDVIEDDIEFYKSLLEDWSVEVDNSSKLLDPGNNNSLLAVIAYSIENEL | -0.0399 |

| Sequence | soluble fraction (log2) |
| --- | --- |
| HMVSDAWITGKVKSQLLADDVTPGMKIDVDTEDRIVSLKGTVPSLTARNEAIRIASHTKGVRTVDADELIV | 0.118 |
| HMVSFAEQASDWLAHFDRLGDVGPDTTLTDLTARDAEFSAWVNEGIHHRVAFLETLAAWHRTER | -0.774 |
| HMVSGLEILKIQVQDHPSDWRWALLLARTHYENGNREAAVRTLRPLQRLHPDRLEVMTLWALLA | -0.00253 |
| HMVSGSPTVDILMQRGLEYQQQENLEAARDAFDRAINLKPDYAEAWNRRAVLFFNEGKYDEAIADLETAIT | 0.077 |
| HMVSKEELANSIYENKTADELGNIVLRKGKYSGEMLRTIYVKDIGYLEWHSKQSYEYSNAVKWYLKKLE | -1.21 |
| HMVSLEEIINDLTSRIQTAVKMRFSDFVQNRKERVGVIVSFLGMLELVKQGIIDIKQEGHFADIEMETA | -0.296 |
| HMVSLSENQKIVLESLNTAMSARELMEILNLSDISHFRRNILNPLLLEGLIVRTKPDKPKSSKQKYIKANF | -1.15 |
| HMVSPEVEMLRAAVETMSERQKQVYELHYLRGFNVKETAAILGMSSPTVTAHKKRIMEIIKKFFE | -1.22 |
| HMVSPFQQQIADKVHNEIIAAKFNYDNATNENERLLAQLQAKKARELANQYGLDMSSYGADTTAERS | 0.235 |
| HMVSSAEQQARDKESGMILVQEAGGPDKARALVEKMRQDIRNPALDGTRRQMLRGHVARIELALAELETG | 0.00436 |
| HMVSVGDIFAGRIISNENGHLLLQLLDGSKISAQTVTDLKYNIGDVLNLEIIEEKQGLIFVRQT | -0.516 |
| HMVSVLGRRIKELRLQNSMTQMQLAKKLGYKGNSLVAGWELGKNYPSVSSIKRLSEIFDTDLMKYVG | -1.65 |
| HMVTDTGAIEKVIDEVIAANPKQVQEIADQRAAGHEKPKTLGWLVGQIMKASGGKVNPAAVNEILLKKLG | 0.149 |
| HMVTFDEISQSLVRDVAARRSLSVQTLHAMVDRYNAGSSINAVANQYGIDRLKLREILIELGVHVAT | 0.159 |
| HMVTLQEVKQYLRIDFEEEDPLLLSLLATAKQQVMNVGRMDEAQLSEHEDTARTAILYAVSYLYENRN | -1.85 |
| HMVTPAQQARDTLLGALVGLARATTSEPKTDDTDVVLNAGLRLAAQPDAPEERLQRMLAIVQTEKHRV | 0.116 |
| HMVTVNAFGKSGPEPAAMTKEALAKGADEVRVIVDSPTAAASVRDFLIGAGLRVQLQDDEGQLIVVGEKK | 0.215 |
| HMVVDEQRIQTLVSAAEQNSSDPVPRVTLGNLYFDAEQFEEAVKWYEQALALDPRNVNVSTDLGVGYYY | -0.00895 |
| HMVVKLTQEQDRFIKTFNDKSLAFYYISSWGWGSFLRNGIGGVYEGDKTPFTLDEKEKMLNAIINGYEVI | -1.82 |
| HMVVKSPLEMAFDKFREMRKKIRKPMTERAEELIWKELSKLAGEDSDLKIEILEQSIRNGWQDVYAVK | -0.265 |
| HMVVLPGEVVALKIIQTGSSKDQGVGYLEDGTMVVVDGAKNSIGKTIEIQISRSHQTVAGRMLFGIAMS | -1.24 |
| HMVVQTELVRISITSLSGEDIRRLVQIKVVGATIEPFEGGGFLITGTAEQIAKAKDFLNSMSTEF | -0.855 |
| HMVVRKHDRYYTPEHRKLLMDTYERTNKYPTKQDMSELAKIIGVLPIKILWWYTHRRRQDRRKGEESSSP | -0.0096 |
| HMVVTMEKIVVNDGGIRIDTYLADKLNISRSKVAKMLENNILVNNVKVKPSYKVTNNDIIEVEEYV | -0.936 |
| HMVVVLPGETIKIDLIREGKDKQALGYLEDGTMIVVDNAKHLIGKNVEIEIDNVLPKEAGRVIFASLHGA | -0.109 |

| Sequence | soluble fraction (log2) |
| --- | --- |
| HMVVVMNADAEADEIKRVKWNLEQMLFRTQVIYGVKRIVIGAIGDQREVDLSEIEQMPKVDKIVRISK | -1.4 |
| HMVVVPDVKGLKIEEAAEFFKNNNLHYNVIDSVFSKDVEPGAIVELSPLAGSKVKEGRIVFITVNALTS | -0.651 |
| HMVVVVELTENEKAVQDVLTKNEGSLEISDLKTKLELSGKQWDKALKGLAKHGITQVAKVDGVVTVSL | -0.303 |
| HMVWMIEKDQSVILVNKLERIQVEALGKALENGNFGDRIRVINNKSGQKLLGIVESEKKIQIISKI | -2.44 |
| HMVYLPGEEIPLKIIQEGKESGQGVGYLEDGTMVVVENGRRYLNQEVLVQVTKILQTNAGRLIFAVP | -0.346 |
| HMVYLPSSIKNIPTKYGEMMVANFKMDELQANSKNGWVSMVISERREPSEKGATHYAYVNTY | 0.432 |
| HMVYNQYILTQSVRLREEPGISGRVIRLLETGTTVELVDTVVVNKDDYDWVWVKLSDGAVGWIIKSAIDI | -0.529 |
| HMWDEMKDQKLVEALLLLREDERKLIYQHVFEERTFDDISRINGLPPYKVKGIYYYAIRKIRKWMG | -1.51 |
| HMWGQDVLFTIDKKEFKGKLLEQSDKHTTFLPDGQKTPQKIPNRLIKEIHLGSNKIIDFGNDFLI | -0.179 |
| HMWPDDAIALPTRDGQDVGGAQERTMLAFASGAAGIRTVEEINPDGSITRLRTRYGWPTFETEGARTAAAE | -0.109 |
| HMWTIDPLDWKTENADQIVEKVMSEAKENAIILLHDRYEASVEAALRIVDLLKEQGYTFVTADKLV | -0.257 |
| HMWTKKELWNAIAKLPKKQRTVVMMRIAQNLPYKDISEITGMSIGSAKVNYHHAVNSLKQWLS | -0.59 |
| HMWTPLVVAVLIGGTHRFGELRAAVGGITPKVLTETLRSMERDGLVVREQTPGVPPRVDYALTPLGA | -0.319 |
| HMYAGTWISESGQWKYRNDDGSFAKGWFQDLDSRWYYFDANGHMLSDTLTPDGYRLGEDGAWVND | -0.638 |
| HMYDESVFTGEYHYYYEKLSDDDKLIYRQIYAMMQKRMDGISLNTTDTDNVSRIQQFVLLDNPQF | -3.04 |
| HMYDKKVFRLLFILNQLDSRKKVSTGELAKEFNVSPRTVQRDIVLLNTTGFPIISLEKGYHSFMEGFSLK | -1.12 |
| HMYDPVNEIGRVLKKIRQERSLTLDNVAEITGVSKTMLGQIERGVSVPTISVLWKIAKGLQVSLSTLLNE | -0.826 |
| HMYEGLPVTLIIDGRVIEANLAKANRDMAWLERELANSGVRSHHDVFFATLDSRGQLYYQVKN | -0.143 |
| HMYELDIYPNPAIDKINVLLPSSTTLPVKVEIYDIMGKKVNSLLTTKKAFTIETDQFEKGIYFVKA | 0.0213 |
| HMYELREGDVVSVRILSQTGQNSYIASFAGGRFSVTSERAFAPGTVFSASVSLKDGTLVLSPL | -0.568 |
| HMYFEDEELDRFVGTPAGAYTEEDVEEFRDVLLSLDIEEVPSWVRSLQLRGIDFPETLRPELYLL | -3.14 |
| HMYGQEVKVLGLFGDRAFIKVDEKSAVIRIGQSHQNVQLKSISNQKAILLVDNKDIALGLGDSYQSA | -0.244 |
| HMYGVAEFDEKGNVLSIEEKPVQPKSNYAVVGLYFYPNKVVGVASGIKPSARGELEITTVNQTFLRDEELK | 0.0827 |
| HMYHNKFADLAGFIAFNEKNEEIFTFGKYKGQNVKEVFQRDIGYYGWLQNADFPLYTKKVFTAIQLRSR | -2.16 |
| HMYHPGFEALREVARQGSFIKAARALGISGPAVSKQIKSLEARLNLVLLHRTTRAVTLTEAGQRLTEILD | -2.07 |
